# Results reported in patent US12516130B2, “Single-domain antibody for targeting prostate specific membrane antigen (PSMA)” (NATIONAL INSTITUTE FOR BIOTECHNOLOGY IN THE NEGEV LTD., priority 2019, dated 2026).
# Assays:
# PC3-PIP cells [1] = assay: Mitochondrial potential assay (TMRE); format: cell-based; conditions: 24 h, 1.5 μg/ml DOX or equivalent molar amount
# Method: PC3-PIP cells (2×10^4) were seeded on 96-well plates. […] After 24 h, tetramethylrhodamine ethyl ester (TMRE; Abcam, UK) was added according to the protocol provided by the manufacturer. Fluorescence intensity was measured at an excitation wavelength of 549 nm and an emission wavelength of 575 nm.
# PC3-PIP cells [2] = assay: Time-dependent quantification of NB internalization; format: cell-based; conditions: 100 nM, imaged every 40 min for 16 h
# Method: NB7, NB8, NB13, and NB37, each labeled with Dylight488, were individually incubated for 1 h (at 100 nM) in a 96-well plate. On each well, 1.5×10^4 PC3-PIP cells were seeded and grown overnight, and then the wells were imaged every 40 min for a total of 16 h, using the Operetta CLS high-content analysis system (Perkin Elmer). Each well was imaged as 24 fields, which were later combined to create an image of the entire well. Using the Operetta analysis software, the cells were qualitatively classified into two groups according to the distribution of NBs: (i) mostly on the cell membrane, and (ii) mostly inside the cytoplasm. The number of cells in each group was quantified at each time point and the ratio between the numbers of cells in each group was calculated.
# PSMA [3] = biological target: T1, PSMA (Homo sapiens, UniProt Q04609); assay: Surface plasmon resonance binding assay; conditions: for Koff / Kon: SPR, immobilized NB, 1:1 Langmuir model, 25° C., means ± SD; for binding constant (Ka) to PSMA: stated per SEQ ID NO in the description
# T1 construct: purified extracellular domain of PSMA [residues 44-750; purchased from Caltech Protein Expression Center, CA]; purchased Caltech Protein Expression Center, CA
# T1 sequence (Q04609 44-750): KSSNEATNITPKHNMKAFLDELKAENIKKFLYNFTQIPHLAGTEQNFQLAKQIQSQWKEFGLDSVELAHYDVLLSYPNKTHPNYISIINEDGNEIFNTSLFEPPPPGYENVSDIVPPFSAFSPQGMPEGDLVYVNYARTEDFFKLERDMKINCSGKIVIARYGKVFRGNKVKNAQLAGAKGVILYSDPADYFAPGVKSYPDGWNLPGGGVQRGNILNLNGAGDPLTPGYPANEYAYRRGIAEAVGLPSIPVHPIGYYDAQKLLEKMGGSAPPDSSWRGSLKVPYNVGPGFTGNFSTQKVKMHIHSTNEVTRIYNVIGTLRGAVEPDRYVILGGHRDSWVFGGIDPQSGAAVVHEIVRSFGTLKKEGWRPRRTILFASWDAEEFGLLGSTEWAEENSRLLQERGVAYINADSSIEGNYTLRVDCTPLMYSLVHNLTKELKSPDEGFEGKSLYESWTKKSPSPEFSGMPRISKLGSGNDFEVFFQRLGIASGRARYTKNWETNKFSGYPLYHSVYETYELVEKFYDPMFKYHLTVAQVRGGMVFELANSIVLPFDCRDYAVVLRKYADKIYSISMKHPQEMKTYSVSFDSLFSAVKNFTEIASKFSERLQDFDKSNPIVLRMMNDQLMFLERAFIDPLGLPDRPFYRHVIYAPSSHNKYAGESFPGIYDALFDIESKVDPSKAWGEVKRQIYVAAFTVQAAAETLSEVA
# Method: The affinity of each NB to PSMA was determined by using surface plasmon resonance (SPR) spectroscopy on a ProteOn XPR36 chip (Bio-Rad, CA). The chip was activated by using sulfo-NHS (0.1 M N-hydroxysuccinimide) and EDC [0.4 M 1-ethyl-3-(3-dimethylaminopropyl)-carbodiimide]. Each NB (0.2 μg) was immobilized in a 10 mM sodium acetate buffer, pH 5.0, at a flow rate of 30 μl/min. Bovine serum albumin (BSA) (3 μg) was immobilized on the chip as a negative control. Unbound esters were deactivated with 1 M ethanolamine HCl at pH 8.5. The soluble PSMA was then applied over the chip at concentrations of 2.94, 5.88, 11.75, 23.50, or 47.00 nM (for NBs 8, 13, and 37) or of 25, 50, 100, 1,600, or 3,200 pM (for NB7), at a flow rate of 25 μl/min. During this time, the association between the NBs and PSMA was measured. The dissociation was measured while flowing 50 μl/min PBST (namely, a phosphate-buffered saline with 0.005% Tween). For each protein complex, a binding sensogram was generated by subtracting the values of the PSMA response to BSA from those of the PSMA response to the NBs. The dissociation constant (KD) was determined from the Langmuir 1:1 kinetic model. The temperature throughout the binding measurements was set at 25° C.
# [4] = test system: PC3-PIP (PSMA+) and PC3-flu (PSMA−) xenografts; assay: In vivo optical (NIR) imaging of labeled NBs; design: species or system athymic nude mice; conditions: for duration until the fluorescent signal was no longer detected (late time point): whole-body NIR imaging, 1.5 nmole AlexaFluor680-labeled NB i.v.
# Method: Tumor xenografts were generated in 6-week old male athymic nude mice by using PC3-PIP and PC3-flu cells. Each mouse was simultaneously injected subcutaneously with 2×10^6 cells of each line, diluted 1:1 with Matrigel (Corning, USA); PC3-PIP cells were injected above the right upper flank, while PC3-flu cells were injected above the left one. Nine days after the inoculation, as the tumors reached a size of ˜200 mm^3, these mice were injected intravenously with 1.5 nmole of either NB7, NB8, NB13, or NB37 (four mice per group) labeled with NHS-ester AlexaFluor680 (Invitrogen). In addition to these 16 mice, four tumor-bearing mice were not injected with any NB, while four other mice were injected with the labeled NBs (a different NB per mouse) but were not implanted with a xenograft. The mice were anesthetized with isoflurane at different time points (see below) and the distribution of the fluorescently labeled protein was measured in near infra-red (NIR) optical imaging using the IVIS Lumina system (PerkinElmer, USA). Exposure time was set at 1 s. The fluorescence signal was measured at the time of injection, and 0.5, 1, 2, 3, 6, 10, 18, 24, 28, 32, 36, 48 and 56 h after injection. Images of the mice were acquired 3 and 6 h after injection, and again when a signal was no longer detected (24-56 h after injection). At each time point, one mouse from each group of tumor-bearing mice that had been injected with a NB was euthanized for an ex vivo quantification of the fluorescent signal in its organs, using the Living Image software.
# PSMA [5] = biological target: T1, PSMA; assay: Small-angle X-ray scattering of PSMA-NB complexes; conditions: for Dmax / Rg: PSMA + NB; for shift of Rg of PSMA-NB complex from the original Rg of PSMA (43 Å) / change of Dmax on binding of PSMA to NB: SAXS; for shift of Rg of PSMA-NB complex from the original Rg of PSMA (43 Å): PSMA 0.5 mg/ml; for change of Dmax on binding of PSMA to NB: PSMA alone 115 Å
# Method: The small-angle X-ray scattering (SAXS) of monomeric PSMA was measured in PBS at a final concentration of 0.5-3 mg/ml. For PSMA-NB complex samples, the concentration of PSMA was 0.5 mg/ml and the concentrations of the NBs were 0.1-0.5 mg/ml. Measurements were performed in beamline BM29 at the ESRF. The X-ray wavelength was 1.5 Å and the temperature was 4° C. The detector was Pilatus 1 M and the sample-to-detector distance was set at 2.86 m, with a scattering vector (q) range of 0.0025-0.5 Å^−1. At a scattering angle of 2θ, the magnitude of the scattering vector (q) is defined as: […]
# The experimental SAXS data for all samples were linear in the low q, Guinier region. The radii of gyration (Rg) were derived from data in the qRg<1 region by using the Guinier approximation:
# The inventors analyzed the small-angle region (0.012<q<0.08 Å^−1) of the scattering profiles using the Guinier approximation embedded in the GNOM method.
# The scattering curve reflects structural characteristics in reciprocal space. Scattering profiles were translated into real space by Fourier transformation, resulting in the pairwise-distance distribution function P(r). This function reflects the distances between pairs of scattering points within the macromolecule, allowing the determination of the maximum dimension of the particle (Dmax). To obtain a reliable quantification of Dmax, the inventors incorporated GNOM with in-house scripts. The Rg of monomeric PSMA extracted from SAXS data was compared to the calculated Rg from the crystal structure of monomeric PSMA (PDB 3D7D) using CRYSOL. The overall three-dimensional ab initio models of PSMA and PSMA-NB complexes were restored from the experimental scattering data by using Dammin. Shape reconstruction was performed to represent the molecular shape as a closely packed sphere assembly within a search volume defined by Dmax, chosen with a χ^2<1.3 for all models. For all samples, 20 low-resolution models were averaged using the program DAMAVER to yield an averaged model representing the general structural features of each reconstruction.
# PC3-PIP cells [6] = assay: Cell viability assay (propidium iodide, FACS); format: cell-based; conditions: 24 h, 1.5 μg/ml DOX or equivalent molar amount
# Method: PC3-PIP cells were grown and treated as described in the cell quantification assay section, above. The cells were harvested, incubated with 0.5 μg propidium iodide (PI; Biolegend), and their fluorescence intensity was measured in a BD C6 flow cytometer.
# PC3-PIP (PSMA+) cells = assay: FACS cell binding assay, PC3-PIP cells; format: cell-based; conditions: effect of K43PrK mutation
# Method: Once the cells reached 70% confluence, 10^5 cells were added to each well of 96-well U-shaped bottom plates (Greiner Bio-One, Austria), centrifuged at 150 g for 5 min, and washed with PBSA (namely, PBS+1 g/1 BSA). NBs were added to the cells in concentrations of 0.1, 0.5, 2, 5, 10, 20, 50, 100, 500, or 1000 nM. The cells were incubated with the NBs for 2 h, followed by three PBSA washing steps. An anti-His antibody conjugated to fluorescein isothiocyanate (FITC) (Invitrogen) was then added at a dilution of 1:100, incubated with the cells for 1 h, and washed three times with PBSA. The cells were kept on ice throughout the experiment. The fluorescence of each sample was measured using an Accuri C6 flow cytometry analyzer (BD Biosciences, CA). Each experimental condition was repeated three times. To generate a titration curve, the value for each sample was determined using the equation:
# [formula] where Fsample is the mean fluorescence value, Flow is the fluorescence at the lowest concentration for PC3-PIP cells, and Fhigh is the fluorescence at the highest concentration for PC3-PIP cells. A binding curve was generated using GraphPad Prism 5.0.
molecule,measurement,setting,value
Carbonyl cyanide 4-(trifluorornethoxy) phenythydrazone [FCCP],mitochondrial membrane potential (TMRE signal),PC3-PIP cells [1],significantly reduced the mitochondrial membrane potential
"NB13: anti-PSMA camel nanobody (VHH, ~16 kDa) selected by phage display (protein) VHH: QVQLQESGGGSVQTGGSLRLSCAASGYTASFSWIGYFRQAPGKEREGVAVINVGVGSTYYADSVKGRFTISRDNTENTISLEMNSLKPEDTGLYYCAGSLRWSRPPNPISEDAYNYWGQGTQVTVSSAAAYPYDVPDYGS",internalization into PSMA-expressing cells (cytoplasm/membrane ratio over time),PC3-PIP cells [2],much faster
same,Koff,PSMA [3],2.2e-05 ± 9.9e-07 s⁻¹
same,Kon,PSMA [3],36000 ± 89 M⁻¹ s⁻¹
same,binding constant (Ka) to PSMA,PSMA [3],about 3.6×10^4 M^−1 s^−1
same,duration until the fluorescent signal was no longer detected (late time point),[4],32 h
same,Dmax,PSMA [5]; method GNOM,120 Å
same,Rg,PSMA [5]; method GNOM,40.5 Å
same,Rg,PSMA [5]; method Guinier,43.8 Å
same,shift of Rg of PSMA-NB complex from the original Rg of PSMA (43 Å),PSMA [5],lower Rg
same,change of Dmax on binding of PSMA to NB,PSMA [5],increased Dmax
"NB8: anti-PSMA camel nanobody (VHH, ~16 kDa) selected by phage display; PDB 6XXO (protein) VHH: QVQLQESGGGSVQAGGSLRLSCARSGWPYSTYSMNWFRQAPGKEREAVAGISSTMSGIIFAESKAGQFTISQDNAKNTVYLQMNNLKPEDTAIYYCAARRDYSLSSSSDDFDYWGQGTQVTVSSAAAYPYDVPDYGS",Koff,PSMA [3],0.00012 ± 5.3e-07 s⁻¹
same,Kon,PSMA [3],20000 ± 42 M⁻¹ s⁻¹
same,binding constant (Ka) to PSMA,PSMA [3],about 2×10^4 M^−1 s^−1
same,signal intensity in the PC3-PIP tumor,"[4]; ex vivo, after 3 h","171,000 counts/cm^2/s"
same,signal intensity in the PC3-flu tumor,"[4]; ex vivo, after 3 h","21,300 counts/cm^2/s"
same,signal intensity in the kidneys,"[4]; ex vivo, after 3 h","94,700 counts/cm^2/s"
same,duration until the fluorescent signal was no longer detected (late time point),[4],32 h
same,Dmax,PSMA [5]; method GNOM,100 Å
same,Rg,PSMA [5]; method GNOM,39.4 Å
same,Rg,PSMA [5]; method Guinier,40.5 Å
same,shift of Rg of PSMA-NB complex from the original Rg of PSMA (43 Å),PSMA [5],lower Rg
same,change of Dmax on binding of PSMA to NB,PSMA [5],decreased it
"NB37: anti-PSMA camel nanobody (VHH, ~16 kDa) selected by phage display; PDB 6XXP (protein) VHH: QVQLQESGGGSVEAGGSLRLSCARSGWPYSTYSMNWFRQAPGKEREAVAGISSTMSGIIFAESKAGQFTISQDNAKNTVYLQMNNLKPEDTAIYYCAARRDYSLSSSSDDFDYWGQGTQVTVSSAAAYPYDVPDYGS",Koff,PSMA [3],7.5e-05 ± 6.6e-07 s⁻¹
same,Kon,PSMA [3],22000 ± 53 M⁻¹ s⁻¹
same,binding constant (Ka) to PSMA,PSMA [3],about 2.2×10^4 M^−1 s^−1
same,duration until the fluorescent signal was no longer detected (late time point),[4],24 h
same,Dmax,PSMA [5]; method GNOM,110 Å
same,Rg,PSMA [5]; method GNOM,38.6 Å
same,Rg,PSMA [5]; method Guinier,40.4 Å
same,shift of Rg of PSMA-NB complex from the original Rg of PSMA (43 Å),PSMA [5],lower Rg
same,change of Dmax on binding of PSMA to NB,PSMA [5],decreased it
"NB7: anti-PSMA camel nanobody (VHH, ~16 kDa) selected by phage display; PDB 6XXN (protein) VHH: QVQLQESGGGSVQAGGSLRLSCTAPGYTDSNYYMSWFRQAPGKEREWVAGVNTGRGSTSYADSVKGRFTISQDNAKNTMFLQMNSLKPEDTAIYYCAVAACHFCDSLPKTQDEYILWGQGTQVTVSSAAAYPYDVPDYGS",internalization into PSMA-expressing cells (cytoplasm/membrane ratio over time),PC3-PIP cells [2],much faster
same,Koff,PSMA [3],3.9e-05 ± 2.8e-07 s⁻¹
same,Kon,PSMA [3],710000 ± 450 M⁻¹ s⁻¹
same,binding constant (Ka) to PSMA,PSMA [3],about 7.1×10^5 M^−1 s^−1
same,duration until the fluorescent signal was no longer detected (late time point),[4],> 56 h
same,Dmax,PSMA [5]; method GNOM,120 Å
same,Rg,PSMA [5]; method GNOM,42.4 Å
same,Rg,PSMA [5]; method Guinier,48.2 Å
same,shift of Rg of PSMA-NB complex from the original Rg of PSMA (43 Å),PSMA [5],higher Rg
same,change of Dmax on binding of PSMA to NB,PSMA [5],increased Dmax
"NB7cys: NB7 with an added cysteine in the C-terminus (protein, left off: small tags and cut ends, NB7 with an added cysteine in the C-terminus) VHH (part 1 of 2): QVQLQESGGGSVQAGGSLRLSCTAPGYTDSNYYMSWFRQAPGKEREWVAGVNTGRGSTSYADSVKGRFTISQDNAKNTMFLQMNSLKPEDTAIYYCAVAACHFCDSLPKTQDEYILWGQGTQVTVSSAAAYPYDVPDYGS VHH (part 2 of 2): C",PI signal (late apoptosis and necrosis),PC3-PIP cells [6],did not change the PI signal
"NB7 K43PrK: NB7 with lysine K43 changed to the non-natural amino acid PrK (protein, non-natural residues; left off: small tags and cut ends, NB7 with lysine K43 changed to the non-natural amino acid PrK) VHH: QVQLQESGGGSVQAGGSLRLSCTAPGYTDSNYYMSWFRQAPGXEREWVAGVNTGRGSTSYADSVKGRFTISQDNAKNTMFLQMNSLKPEDTAIYYCAVAACHFCDSLPKTQDEYILWGQGTQVTVSSAAAYPYDVPDYGS","binding to PC3-PIP cells versus NB7, FACS",PC3-PIP (PSMA+) cells,no significant change in binding
